The results in this text go back to PMC13316013, “Shared structural mechanisms of alternating access between the secondary peptide transporter SbmA and ABC transporters” (Nature Communications, 2026).

A word on the stoichiometry N: it is a count of units in the complex or per binding partner.

The target of series [1] is T1, SbmA (Escherichia coli, UniProt P0AFY6).
T1 construct: SbmA, inner membrane peptide transporter of Escherichia coli, cloned from genomic DNA into pBXC3H; Homodimer; no cleavage is described; also called SbmA-like peptide transporter (SLiPT) family member; source: E. coli MC1061, purified (Nickel Sepharose, SEC) in DDM; for some samples reconstituted into MSP1E3D1 lipid nanodiscs
The series is described as follows: cryo-EM structure; SbmA in complex with Fab S11-1 in lipid nanodiscs (MSP1E3D1; DOPC:POPG:POPO-cardiolipin 13:4:1), SEC in 20 mM MES pH 5.5, 300 KCl; 300 kV. Particulars: both partners purified.

Series [2] concerns the molecule itself. The series is described as above.
The target of series [3] is T1, SbmA. As to the kind of experiment: cryo-EM structure; SbmA incubated with SB2 in a 1:2 molar ratio, 30 min, 4 °C; complex purified by SEC in TBS pH 7.4, 0.05% DDM; 200 kV (Table 1 names lipid nanodiscs for identifier D). Particulars: both partners purified. On the technique in general: In gel filtration, larger molecules generally elute earlier.
Series [4] concerns the target T1, SbmA. The series is described as above. The following applies: both partners purified. This is another data set of the same source.

B1: Fab fragment Fab S11-1 (Fab, V domains shown)
VH: LKLLDSGAELVKPGASVKLSCTASGFNIKDTYMYWVKQRPDQGLEWIGRIDPANGNSKYDPKFQGKATITADTSSNTAYLQVSSLTSEDTAVYYCARWLVRGRRGTMDYWGQGTSVTVSS
VL: DIVMTQSPAILSASPGEKVTMTCRASSSVSYMHWYQQKPGSSPKPWIYATSNLASGVPARFSGSGSGTSYSLTISRVEAEDAATYYCQQWSSNPRTFGGGTKLEIK
B1: the “stoichiometry N” value in the series with SbmA [1] stood at 1 Fab per SbmA dimer.

B2: SbmA (natural protein, Escherichia coli)
chain: MFKSFFPKPGTFFLSAFVWALIAVIFWQAGGGDWVARITGASGQIPISAARFWSLDFLIFYAYYIVCVGLFALFWFIYSPHRWQYWSILGTALIIFVTWFLVEVGVAVNAWYAPFYDLIQTALSSPHKVTIEQFYREVGVFLGIALIAVVISVLNNFFVSHYVFRWRTAMNEYYMANWQQLRHIEGAAQRVQEDTMRFASTLENMGVSFINAIMTLIAFLPVLVTLSAHVPELPIIGHIPYGLVIAAIVWSLMGTGLLAVVGIKLPGLEFKNQRVEAAYRKELVYGEDDATRATPPTVRELFSAVRKNYFRLYFHYMYFNIARILYLQVDNVFGLFLLFPSIVAGTITLGLMTQITNVFGQVRGAFQYLINSWTTLVELMSIYKRLRSFEHELDGDKIQEVTHTLS
notes: SbmA, inner membrane peptide transporter of Escherichia coli, cloned from genomic DNA into pBXC3H; Homodimer; no cleavage is described; also called SbmA-like peptide transporter (SLiPT) family member; source: E. coli MC1061, purified (Nickel Sepharose, SEC) in DDM; for some samples reconstituted into MSP1E3D1 lipid nanodiscs
As to B2, the “stoichiometry N” value in series [2] worked out at 2.

B3: Sybody2 (VHH)
VHH: QVQLVESGGGLVQAGGSLRLSCAASGFPVIANVMYWYRQAPGKEREWVAAIDSSGEYAYYADSVKGRFTISRDNAKNTVYLQMNSLKPEDTAVYYCYVKVGSHYWGQGTQVTVSA
notes: synthetic nanobody (sybody, 16 kDa) selected against biotinylated SbmA T403C; also called SB2; Sb2
For the molecule B3, the “stoichiometry N” value worked out at 1 sybody per SbmA dimer with SbmA [3] and 2 Sb per SbmA dimer with SbmA [4].
